# Reference: patent US20140271640A1, “FGF-10 Complexes” (Permeon Biologics, Inc., priority 2012, published 2014)
# Residue numbers refer to the chain shown, from its start. In names and notes the source's numbering stands.
# B1: FGF10 E158K/K195A: FGF-10 variant or fragment having two substitutions E158K/K195A (protein)
# chain: GRHVRSYNHLQGDVRWRKLFSFTKYFLKIEKNGKVSGTKKENCPYSILEITSVEIGVVAVKAINSNYYLAMNKKGKLYGSKEFNNDCKLKERIEKNGYNTYASFNWQHNGRQMYVALNGKGAPRRGQKTRRANTSAHFLPMVVHS
# B2: FGF10: Hisx6- and Myc-tagged domain of human FGF10 with the amino acid sequence of SEQ ID NO: 2 (protein, listed as Homo sapiens)
# chain: B1 chain with K95E, A132K
# modifications: His6 and Myc tags
# B3: FGF10 R78A: FGF-10 variant or fragment having one substitution R78A (protein)
# chain: B1 chain with R15A, K95E, A132K
# B4: FGF10-p16: fusion protein of FGF10 domain (SEQ ID NO: 2), (G4S)2 linker and human p16 (protein)
# chain: MEQKLISEEDLGSGRHVRSYNHLQGDVRWRKLFSFTKYFLKIEKNGKVSGTKKENCPYSILEITSVEIGVVAVKAINSNYYLAMNKKGKLYGSKEFNNDCKLKERIEENGYNTYASFNWQHNGRQMYVALNGKGAPRRGQKTRRKNTSAHFLPMVVHSGHGGGGSGGGGSMEPAAGSSMEPSADWLATAAARGRVEEVRALLEAGALPNAPNSYGRRPIQVMMMGSARVAELLLLHGAEPNCADPATLTRPVHDAAREGFLDTLVVLHRAGARLDVRDAWGRLPVDLAEELGHRDVARYLRAAAGGTRGSNHARIDAAEGPSDIPDGHGHHHHHH
# B5: p16: human p16Ink4A tumor suppressor protein without penetrating polypeptide (protein, listed as Homo sapiens)
# chain: MEPAAGSSMEPSADWLATAAARGRVEEVRALLEAGALPNAPNSYGRRPIQVMMMGSARVAELLLLHGAEPNCADPATLTRPVHDAAREGFLDTLVVLHRAGARLDVRDAWGRLPVDLAEELGHRDVARYLRAAAGGTRGSNHARIDAAEGPSDIPD
# B6: Fibroblast growth factor 10 (FGF-10): native FGF family member, ligand of FGFR-2b (protein, UniProt O15520 38-208, looked up)
# Fibroblast growth factor 10: QALGQDMVSPEATNSSSSSFSSPSSAGRHVRSYNHLQGDVRWRKLFSFTKYFLKIEKNGKVSGTKKENCPYSILEITSVEIGVVAVKAINSNYYLAMNKKGKLYGSKEFNNDCKLKERIEENGYNTYASFNWQHNGRQMYVALNGKGAPRRGQKTRRKNTSAHFLPMVVHS
# Assays:
# FGFR2b receptor = FGFR2b receptor (Homo sapiens, UniProt P21802); conditions: relative to wild-type FGF10; cited from earlier work
# Sequence of FGFR2b receptor (P21802 22-822 isoform P21802-3 limits assumed): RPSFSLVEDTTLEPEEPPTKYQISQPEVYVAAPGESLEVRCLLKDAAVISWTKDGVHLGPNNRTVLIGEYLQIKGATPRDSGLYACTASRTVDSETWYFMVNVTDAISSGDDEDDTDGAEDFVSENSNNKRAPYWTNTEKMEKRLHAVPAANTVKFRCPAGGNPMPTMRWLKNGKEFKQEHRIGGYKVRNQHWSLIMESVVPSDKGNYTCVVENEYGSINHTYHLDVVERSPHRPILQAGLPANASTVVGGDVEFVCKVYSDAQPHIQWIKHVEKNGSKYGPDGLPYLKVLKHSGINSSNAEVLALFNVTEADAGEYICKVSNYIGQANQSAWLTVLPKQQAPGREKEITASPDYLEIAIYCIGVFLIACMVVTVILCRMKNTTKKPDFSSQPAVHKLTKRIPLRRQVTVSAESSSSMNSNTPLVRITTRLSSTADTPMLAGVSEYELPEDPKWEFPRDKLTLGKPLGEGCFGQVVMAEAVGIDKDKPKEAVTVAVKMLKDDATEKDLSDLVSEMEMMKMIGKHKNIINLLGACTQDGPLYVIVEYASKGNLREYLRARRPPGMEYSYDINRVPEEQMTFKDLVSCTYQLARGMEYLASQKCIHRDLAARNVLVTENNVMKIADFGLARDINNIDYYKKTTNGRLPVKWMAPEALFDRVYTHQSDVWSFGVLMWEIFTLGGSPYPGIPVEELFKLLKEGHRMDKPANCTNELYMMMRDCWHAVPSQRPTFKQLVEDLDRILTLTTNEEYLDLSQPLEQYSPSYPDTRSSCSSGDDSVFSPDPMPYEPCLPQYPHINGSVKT
# [1] = Stability of Hisx6-FGF10-Myc following freeze/thaw cycles (A280, analytical SEC); format: physicochemical; conditions: after two (multiple) freeze/thaw cycles
# Experimental: The stability of this cell penetrating domain of FGF10 was evaluated following multiple freeze/thaw cycles. To do this, protein concentration measurements and analytical size exclusion chromatography were carried out comparing protein which had undergone zero, one, or two freeze/thaw cycles. […] The study indicated about 75% stability of this protein after two freeze/thaw cycles.
# Purified protein was subjected to the indicated number of freeze/thaw cycles (each freeze/thaw cycle consisted of snap-freezing the protein in liquid nitrogen, placing it at −80° C. for a minimum of two hours, and then thawing it on ice) and analyzed by size exclusion chromatography. After each thaw, the protein was subjected to 20,000×g centrifugation to remove any precipitation. The protein concentration of each sample was measured by A280, considering the extinction coefficient (24540) and molecular weight (19.57 kDa). In each case 40 μL of the protein was applied to a Superdex 75 10/300 GL column (GE Healthcare). The column running buffer was the same as the protein storage buffer (20 mM Hepes, pH 7.5, 0.5 M NaCl).
# [2] = mouse, in vivo
# [3] = mouse, in vivo, iv
# Hela cells = test: Cell penetrating activity of FGF10 domain, anti-myc flow cytometry; format: cell-based; conditions: 1 uM, 20 minutes
# Experimental: On the day prior to the assay, 10^6 Hela cells were plated in each well of a 6-well plate and incubated in the 37° C. CO2 incubator overnight. The cells were washed once with PBS and then were replenished with 1 mL of serum-free DEMEM (A) or media containing 1 uM of the FGF10 domain construct FGF10-myc (B, C, and D) and were incubated for 20 minutes in the 37° C. CO2 incubator. The cells were then washed three times with ice-cold PBS. For (C) and (D), cells were treated with 0.25% trypsin/EDTA and washed three times with PBS. The cells in (D) were fixed for 10 minutes with 1 mL 4% formaldehyde and permealized for 5 minutes with 0.2% saponin. Then 10 uL of 0.1 mg/mL FITC labeled chicken polyclonal anti-myc tag antibody (Abcam #1394) was added to all the cells and incubated at 4° C. in the dark for 2 hours. The cells were washed three times with ice cold PBS. Cells in (A) and (B) were detached with 1 mL 10 mM EDTA. Cells were analyzed using a BD Accuri™ C6 flow cytometer.
# [4] = Microautoradiography analysis (MARG) of cellular distribution in liver and kidney; format: in vivo, mice
# Experimental: To obtain specific cell-type uptake information in select organs, microautoradiography analysis was performed on selected organs collected at various time points. For microautoradiography analysis (MARG), animals were anesthetized and blood collected, as described above. Tissue samples are trimmed to be approximately 0.5 cm^2, placed into cryosectioning embedding media on a cryosectioning sample holder, and frozen in isopentane that is cooled with liquid nitrogen. Frozen samples were stored in liquid nitrogen until analysis by MARG. For analysis, tissues were cryosectioned at 5 μm under darkroom conditions, and collected onto glass slides that are pre-coated with photographic emulsion (Kodak NTB photographic emulsion). Slides were placed in sealed light-safe slide boxes and allowed to expose the photographic emulsion for 7 days before being developed, fixed and stained with hematoxylin and eosin. All slides were examined for cellular localization using light microscopy.
# [5] = test system: HepG2 (hepatoma), Hela cells, SW626 cells (ovarian); test: Cell penetration of p16 fusion proteins, flow cytometry; format: cell-based; conditions: 2 uM, overnight
# Experimental: On the day prior to the assay, HepG2 (hepatoma), Hela cells, and 10^6 SW626 cells (ovarian) were plated in each well of a 6-well plate and incubated in the 37° C. CO2 incubator. The cells were washed once with PBS and then were replenished with 2 mL of growth media containing 2 uM of p16, +36GFP-p16 or FGF10-p16 proteins and were incubated overnight in the 37° C. CO2 incubator. The cells were then washed once with PBS and detached with 0.25% trypsin/EDTA. The cells were fixed for 10 minutes with 1 mL 4% formaldehyde and permeabilized for 5 minutes with 0.5 mL 0.4% saponin. Then 2.5 uL of 1 mg/mL FITC labeled chicken polyclonal anti-myc tag antibody (Abcam #1394) was added to all the cells and incubated at 4° C. in the dark for 2 hours, except for cells treated with +36GFP-p16 (GFP itself was used for detection). The cells were washed twice with ice cold PBS and were analyzed using a BD Accuri™ C6 flow cytometer.
# [6] = test system: SKOV-3 ovarian cancer cells; test: SKOV-3 cell viability MTS assay with endosome escape agent; format: cell-based, human; conditions: 1 uM protein, 4 hours, with endosome escape agent (strongest at 13.3 nM)
# Experimental: SKOV-3 ovarian cancer cells were plated in a 96-well format and grown overnight. Cells were incubated with test articles: a) 1 uM of p16, b) 1 uM of +36GFP-p16, c) 1 uM of FGF10-p16 or d) no treatment in the presence of various concentrations of an endosome escape agent such as PFO (five 3× dilution starting from 40 nM; exemplary endosomal escape agents, such as PFO or PFO-like agents, are disclosed in WO2012/094653) for 4 hours in serum-free medium. One group of cells, called “untreated cells” received no test article treatment and no PFO treatment. After incubation, the media from all cell wells was aspirated and fresh complete medium was added for 3 hours. Cell viability was assessed using an MTS assay. Results are reported as number of viable cells as % relative to the untreated cells.
# The CDK4/6 inhibitor PD-0332991 was used as positive control for inhibition of cell proliferation in the p16 deficient SKOV-3 cell line (FIG. 22).
# FGFR-1b = FGFR-1b (Homo sapiens, UniProt P11362); conditions: cited from earlier work
# Sequence of FGFR-1b (P11362 22-822 isoform P11362-19 limits assumed): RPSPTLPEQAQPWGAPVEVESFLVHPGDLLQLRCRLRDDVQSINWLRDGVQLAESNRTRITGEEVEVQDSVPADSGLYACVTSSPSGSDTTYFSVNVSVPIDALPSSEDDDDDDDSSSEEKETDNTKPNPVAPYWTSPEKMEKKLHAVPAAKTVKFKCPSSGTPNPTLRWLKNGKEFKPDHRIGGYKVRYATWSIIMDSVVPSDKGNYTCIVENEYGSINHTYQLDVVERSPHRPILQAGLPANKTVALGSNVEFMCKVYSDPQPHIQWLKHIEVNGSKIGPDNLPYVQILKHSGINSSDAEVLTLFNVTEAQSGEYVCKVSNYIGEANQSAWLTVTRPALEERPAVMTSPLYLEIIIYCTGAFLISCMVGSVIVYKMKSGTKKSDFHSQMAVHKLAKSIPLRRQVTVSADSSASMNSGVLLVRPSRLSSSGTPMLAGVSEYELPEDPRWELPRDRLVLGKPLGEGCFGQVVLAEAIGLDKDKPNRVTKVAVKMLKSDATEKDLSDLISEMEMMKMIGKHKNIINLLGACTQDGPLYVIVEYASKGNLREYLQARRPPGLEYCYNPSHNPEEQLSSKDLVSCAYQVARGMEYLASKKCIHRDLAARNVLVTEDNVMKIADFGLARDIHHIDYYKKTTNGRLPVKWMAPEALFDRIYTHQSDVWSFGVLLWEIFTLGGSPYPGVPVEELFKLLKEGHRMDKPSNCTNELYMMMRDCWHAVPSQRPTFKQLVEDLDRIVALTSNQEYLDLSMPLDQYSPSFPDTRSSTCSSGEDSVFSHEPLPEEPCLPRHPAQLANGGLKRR
molecule,measurement,setting,value
B1,decrease in binding to the FGFR2b receptor (factor / fold),FGFR2b receptor,approximately 4
B2,stability after freeze/thaw cycles,[1]; listed as His6-FGF10-myc,75%
same,stability after freeze/thaw cycles,[1]; listed as Hisx6-FGF10-Myc,about 75%
same,partitioning between plasma compartment and blood cell compartment,[2],favor the plasma compartment over the blood cell compartment
same,plasma concentration compared with Tat-TK or +36GFP,[2],higher concentrations in plasma 1 hour post-injection than Tat-TK or +36GFP
same,travel beyond the injection site,[3],able to travel significantly beyond the area of the injection site
same,cells with protein present on the cell membrane,Hela cells; no trypsin,98.8%
same,cells stained positive after trypsin treatment (internalized protein),"Hela cells; trypsin, fixed and permeabilized",almost all the cells stained positive
same,cellular distribution in kidney (MARG),[4]; kidney,uniformly distributed throughout the kidney
same,cellular distribution in liver (MARG),[4]; liver,uniformly distributed throughout the liver tissue including in hepatocytes
B3,decrease in binding to the FGFR2b receptor (factor / fold),FGFR2b receptor,approximately 4
B4,treated cells stained positive,[5]; trypsin detached,~30%
same,number of viable cells / cell proliferation,[6],significant reduction in the number of viable cells
B5,cell penetration,[5],does not
same,number of viable cells / cell proliferation,[6],failed to block cell proliferation at levels higher than the background toxicity of an endosomal escape agent
B6,binding affinity to FGFR-1b as % of binding affinity to FGFR-2b,FGFR-1b,about 10%
